# Results from article PMC7547722, “A versatile soluble siglec scaffold for sensitive and quantitative detection of glycan ligands” (Nature Communications, 2020).
# Where “and” joins values, the source holds several entries; their conditions need not be identical. Identical values can stand only once.
# B1: Sig-7 R124A: Siglec-7-Fc essential arginine mutant (protein, UniProt Q9Y286 19-353, looked up, variant R124A)
# extracellular domain: QKSNRKDYSLTMQSSVTVQEGMCVHVRCSFSYPVDSQTDSDPVHGYWFRAGNDISWKAPVATNNPAWAVQEETRDRFHLLGDPQTKNCTLSIRDARMSDAGRYFFAMEKGNIKWNYKYDQLSVNVTALTHRPNILIPGTLESGCFQNLTCSVPWACEQGTPPMISWMGTSVSPLHPSTTRSSVLTLIPQPQHHGTSLTCQVTLPGAGVTTNRTIQLNVSYPPQNLTVTVFQGEGTASTALGNSSSLSVLEGQSLRLVCAVDSNPPARLSWTWRSLTLYPSQPSNPLVLELQVHLGDEGEFTCRAQNSLGSQHVSLNLSLQQEYTGKMRPVSGVLL
# modifications: extracellular domain fused to human IgG1 Fc
# notes: Siglec-7-Fc essential arginine mutant
# B2: CD33-Fc R119A (protein, UniProt P20138 18-259, looked up, variant R119A)
# extracellular domain: DPNFWLQVQESVTVQEGLCVLVPCTFFHPIPYYDKNSPVHGYWFREGAIISRDSPVATNKLDQEVQEETQGRFRLLGDPSRNNCSLSIVDARRRDNGSYFFAMERGSTKYSYKSPQLSVHVTDLTHRPKILIPGTLEPGHSKNLTCSVSWACEQGTPPIFSWLSAAPTSLGPRTTHSSVLIITPRPQDHGTNLTCQVKFAGAGVTTERTIQLNVTYVPQNPTTGIFPGDGSGKQETRAGVVH
# modifications: extracellular domain fused to human IgG1 Fc
# Key:
# [1] = test system: neutrophils (CD15+), human splenocytes; experiment: Siglec-Fc (CD22-Fc V1/V2, with or without Fc receptor block) binding to splenocytes, flow cytometry; assay type: cell-based; details: Suppl Fig 12; three replicate columns
# Procedure: (§1) For human splenocytes, the sample was homogenized in media through a 40 µm filter (Corning) under sterile conditions. Samples were centrifuged at 300 rcf for 5 min. The resulting pellet from the spleen sample and whole human blood were treated with RBC lysis buffer (7 min) and centrifuged at 300 rcf and the RBC lysis was repeated twice more until no RBC remained in the pellet. Samples were treated with human Fc-receptor blocking agent (TruStain FX, Biolegend) in flow buffer (HBSS, 0.1% BSA, 5 mM EDTA). For analysis, the following cocktail was used: hSig8 (PerCP/Cy5.5, clone 7C9, Biolegend cat. no. 347108, 1:200), hCD123 (PE/Cy7, clone 6H6, Biolegend cat. no. 306010, 1:200), hCD19 (PE, clone SJ25C1, Biolegend cat. no. 363004, 1:200), hCD3 (FITC, BD Pharmingen cat. no. 555332, 1:50), hCD14 (BV605, clone M5E2, BD Horizon cat. no. 564056, 1:200), hCD15 (BUV395, clone HI98, BD Horizon cat. no. 563872, 1:200), hCD56 (BV510, clone NCAM16.2, BD Horizon cat. no. 563041, 1:200). For human peripheral blood samples, we additionally used hHLA-DR (APC-Cy7, clone L243, Biolegend cat. no. 307618, 1:200). Pre-complexed Siglec-Fc/Strep-Tactin-AF647 (described above) was added to the antibody cocktail, added to cells, and allowed to stain at 4 °C for 45 min. The cells were then centrifuged at 300 rcf for 5 min and resuspended in flow buffer containing 1 µg/mL propidium iodide prior to analysis by flow cytometry.
# (§2) Flow cytometry was performed on a BD LSRFortessa™ X-20 cell analyzer using BD FACSDiva Software Version 8.0.1 and data was processed using FlowJo LLC. Version 9.9.6 and Graphpad Prism 8. The live, single cell populations were gated out with two gates to obtain the median fluorescence intensity (MFI), which indicates binding of the Siglec-Fc-secondary complex to the cell surface. Control cells that were incubated with Strep-Tactin-AF647 (0.55 μg/mL, 0.57 pmol) was used to determine the baseline fluorescence. Number of cells (# cells) plotted indicates percentage of max (% max).
# [2] = test system: B-cells (CD19+), human splenocytes; experiment: Siglec-Fc binding to splenocytes, flow cytometry; assay type: cell-based; details: Suppl Fig 12; three replicate columns
# Procedure: as §1, §2
# [3] = test system: monocytes (CD14+), human splenocytes; experiment: Siglec-Fc binding to splenocytes, flow cytometry; assay type: cell-based; details: Suppl Fig 12; three replicate columns
# Procedure: as §1, §2
# [4] = test system: NK cells (CD56+), human splenocytes; experiment: Siglec-Fc binding to splenocytes, flow cytometry; assay type: cell-based; details: Suppl Fig 12; three replicate columns
# Procedure: as §1, §2
# [5] = test system: T-cells (CD3+), human splenocytes; experiment: Siglec-Fc binding to splenocytes, flow cytometry; assay type: cell-based; details: Suppl Fig 12; three replicate columns
# Procedure: as §1, §2
# [6] = test system: T-cells (CD3+); experiment: Siglec ligands on peripheral blood immune cells, flow cytometry; assay type: cell-based, human; details: replicate values
# Procedure: as §1, §2
# [7] = test system: pDCs (CD123high/HLA-DR+); experiment: as above; assay type: cell-based, human; details: pDC; replicate values
# Procedure: as §1, §2
# [8] = test system: neutrophils (CD15+); experiment: as above; assay type: cell-based, human; details: replicate values
# Procedure: as §1, §2
# [9] = test system: NK cells (CD56+); experiment: as above; assay type: cell-based, human; details: replicate values
# Procedure: as §1, §2
# [10] = test system: cDCs (CD123dim/HLA-DR+); experiment: as above; assay type: cell-based, human; details: cDC; replicate values
# Procedure: as §1, §2
# [11] = test system: B-cells (CD19+); experiment: as above; assay type: cell-based, human; details: replicate values
# Procedure: as §1, §2
# [12] = test system: U937 cells; experiment: Flow cytometry, Siglec-Fc pre-complexed with Strep-Tactin, streptavidin or anti-human IgG1; assay type: cell-based; details: U937; Strep-Tactin-AF647; replicates, Fig. 2
# Procedure: (§3) Strep-Tactin-AF647 (0.55 μg/mL, 0.57 pmol), streptavidin (Biolegend), or anti-human igG1 (Biolegend) was added to Siglec supernatant (50 μL) or purified Siglec and allowed to sit at 4 °C for 15 min. After, the pre-complexed solution was added to cells in a 96-well U-bottom plate for 30 min at 4 °C. After, 200 μL of flow buffer (HBSS, 0.1% BSA, 5 mM EDTA) was added and the plate was spun down at 300 rcf for 5 min. The cells were resuspended in 200 μL of flow buffer and processed through the flow cytometer.
# as §2
# [13] = test system: monocytes (CD14+); experiment: Siglec ligands on peripheral blood immune cells, flow cytometry; assay type: cell-based, human; details: replicate values
# Procedure: (§4) Siglec supernatant (50 μL) or purified Siglec was incubated with cells in a 96-well U-bottom plate for 30 min at 4 °C. Following the incubation, 200 μL of flow buffer (HBSS, 0.1% BSA, 5 mM EDTA) was added and the plate was spun down at 300 rcf for 5 min. Strep-Tactin-AF647 (0.55 μg/mL, 50 μL, 0.57 pmol), streptavidin (Biolegend), or anti-human IgG1 (Biolegend) was added to the cells and incubated for 30 min at 4 °C. After, 200 μL of flow buffer (HBSS, 0.1% BSA, 5 mM EDTA) was added and the plate was spun down at 300 rcf for 5 min. The cells were resuspended in 200 μL of flow buffer and processed through the flow cytometer.
# as §3, §1, §2
# [14] = test system: basophils (CCR3+); experiment: as above; assay type: cell-based, human; details: replicate values
# Procedure: as §4, §3, §1, §2
# [15] = test system: eosinophils (Siglec-8+); experiment: as above; assay type: cell-based, human; details: replicate values
# Procedure: as §4, §3, §1, §2
# [16] = test system: peripheral blood immune cells; experiment: Comparison of 2-step and pre-complexed Siglec-Fc binding, flow cytometry (Figure 3e-g); assay type: cell-based, human; details: Figure 3f; 2-Step; listed as Siglec-7-Fc R124A
# [17] = test system: MDA-MB-468; experiment: Flow cytometry, pre-complexed Siglec-Fc binding to breast cancer cell line; assay type: cell-based; details: Strep-Tactin-AF647, replicates
# Procedure: as §3, §2
# [18] = test system: T47D; experiment: as above; assay type: cell-based; details: Strep-Tactin-AF647, replicates
# Procedure: as §3, §2
# [19] = test system: MCF7; experiment: as above; assay type: cell-based; details: Strep-Tactin-AF647, replicates
# Procedure: as §3, §2
# [20] = test system: ZR-75-1; experiment: as above; assay type: cell-based; details: Strep-Tactin-AF647, replicates
# Procedure: as §3, §2
# [21] = test system: HS578T; experiment: as above; assay type: cell-based; details: Strep-Tactin-AF647, replicates
# Procedure: as §3, §2
# [22] = test system: MDA-MB-231; experiment: as above; assay type: cell-based; details: Strep-Tactin-AF647, replicates
# Procedure: as §3, §2
# [23] = test system: BT549; experiment: as above; assay type: cell-based; details: Strep-Tactin-AF647, replicates
# Procedure: as §3, §2
# [24] = test system: K562 cells; experiment: Flow cytometry, pre-complexed Siglec-Fc binding; assay type: cell-based; details: Strep-Tactin-AF647, replicates
# Procedure: as §3, §2
# [25] = test system: HEK293T cells; experiment: Flow cytometry, pre-complexed Siglec-Fc binding; assay type: cell-based; details: HEK; Strep-Tactin-AF647; replicates
# Procedure: as §3, §2
# [26] = test system: Jurkat cells; experiment: Flow cytometry, pre-complexed Siglec-Fc binding; assay type: cell-based; details: Strep-Tactin-AF647, replicates
# Procedure: as §3, §2
# [27] = test system: HuH7 cells; experiment: Flow cytometry, pre-complexed Siglec-Fc binding; assay type: cell-based; details: Strep-Tactin-AF647, replicates
# Procedure: as §3, §2
# [28] = test system: A549 cells; experiment: Flow cytometry, pre-complexed Siglec-Fc binding; assay type: cell-based; details: Strep-Tactin-AF647, replicates
# Procedure: as §3, §2
# [29] = test system: U937 cells treated with neuraminidase; experiment: Pre-complexed Siglec-Fc staining of cells treated with Neu-S or Neu-A; assay type: cell-based
# [30] = test system: human peripheral blood monocytes; experiment: CD33-Fc binding to monocytes treated with Neu-S or Neu-A; assay type: cell-based; details: Figure 6c; WT (no neuraminidase)
# Procedure: as §3
# For human splenocytes, the sample was homogenized in media through a 40 µm filter (Corning) under sterile conditions. Samples were centrifuged at 300 rcf for 5 min. The resulting pellet from the spleen sample and whole human blood were treated with RBC lysis buffer (7 min) and centrifuged at 300 rcf and the RBC lysis was repeated twice more until no RBC remained in the pellet. […]
# as §2, with “Version 9.9.6 and Graphpad Prism 8.” left out, “Number of cells (# cells) plotted indicates percentage of max (% max).” left out
molecule,measurement,setting,value
B1,"Binding, Neutrophils",[1],10.1 and 1.12 and 11.5
same,"Binding, B-cells",[2],8.11 and 1.36 and 3.18
same,"Binding, Monocytes",[3],7.43 and 2.68 and 5.18
same,"Binding, NK",[4],1.26 and 1.99 and 1.13
same,"Binding, T-cells",[5],2.32 and 2.93 and 4.67
same,Siglec-Fc binding (Figure 3d),[6],7.7 and 27 and 12.8
same,Siglec-Fc binding (Figure 3d),[7],57.8 and 10.3 and 41.1
same,Siglec-Fc binding (Figure 3d),[8],46.2 and 51.8 and 78.1
same,Siglec-Fc binding (Figure 3d),[9],14.1 and 38.5 and 10.3
same,Siglec-Fc binding (Figure 3d),[10],70.6 and -20.5 and 24.4
same,Siglec-Fc binding (Figure 3d),[11],52.4 and 51.4 and 53.1
same,binding of pre-complexed Siglec-Fc (MFI),[12],137 and 149 and 150
same,Siglec-Fc binding (Figure 3d),[13],56.5 and 99 and 6.42
same,Siglec-Fc binding (Figure 3d),[14],41.1 and 57.8 and 2.57
same,Siglec-Fc binding (Figure 3d),[15],-1.28 and 37.2 and 6.04
same,Siglec-7-Fc Binding,[16],9.54 and 11.2
same,binding of pre-complexed Siglec-Fc (MFI),[17],155 and 154 and 158
same,binding of pre-complexed Siglec-Fc (MFI),[18],116 and 117 and 119
same,binding of pre-complexed Siglec-Fc (MFI),[19],121 and 126 and 130
same,binding of pre-complexed Siglec-Fc (MFI),[20],229 and 258 and 236
same,binding of pre-complexed Siglec-Fc (MFI),[21],148 and 144 and 145
same,binding of pre-complexed Siglec-Fc (MFI),[22],165 and 175 and 187
same,binding of pre-complexed Siglec-Fc (MFI),[23],114 and 117 and 118
same,binding of pre-complexed Siglec-Fc (MFI),[24],103 and 99.8 and 101
same,binding of pre-complexed Siglec-Fc (MFI),[25],85 and 88.7 and 91
same,binding of pre-complexed Siglec-Fc (MFI),[26],90.2 and 95.5 and 99.5
same,binding of pre-complexed Siglec-Fc (MFI),[27],105
same,binding of pre-complexed Siglec-Fc (MFI),[28],129 (2×) and 134
B2,CD33-Fc Binding,"[29]; Figure 6a, +Neu-A",106 and 114
same,CD33-Fc Binding,"[29]; Figure 6a, +Neu-S",92.4 and 95.2
same,CD33-Fc Binding,"[29]; Figure 6a, WT cells (no neuraminidase)",77.3 and 79
same,CD33-Fc Binding,"[29]; Figure 6b, +Neu-A",74 and 74.9
same,CD33-Fc Binding,"[29]; Figure 6b, +Neu-S",73 and 72.1 and 68.7
same,CD33-Fc Binding,"[29]; Figure 6b, WT cells (no neuraminidase)",77.3 and 79
same,CD33-Fc Binding,[30],42.3 and 56.8 and 61
